Data taken from patent US20210214417A1 (KAHR MEDICAL, published 2021).

Biological target: T1, recombinant human His-tagged CD47 protein (ACRO Biosystem, cat # CD7-H5227) (human, UniProt Q08722 19-139)
T1 construct: also called Recombinant human CD47; not shown: His tag
Assay: competition ELISA: recombinant human CD47 on the plate, fusion protein added first, then biotinylated SIRPα as the blocked ligand, streptavidin-HRP and TMB, 450 nm; EC50 calculated over 0 to 0.7 ug/ml
Protocol: SIRPα-4-1BBL fusion protein, or a positive control anti CD47 antibody were added to the plate. Following wash biotinylated recombinant human SIRPα was added followed by streptavidin HRP and TMB substrate. Interaction of SIRPα with CD47 was measured by absorbance at 450 nm.
Methods—ELISA plates were coated overnight with recombinant human CD47. The plates were washed and incubated for 1 hour with different concentrations of the produced SIRPα-4-BBL fusion proteins or a positive control anti CD47 antibody. Following, a biotinylated SIRPα was added; and following 1 hour incubation the plates were washed and blotted with Streptavidin-HRP and TMB substrate according to a standard ELISA protocol (FIG. 13A). Plates were analyzed using a Plate reader (Thermo Scientific, Multiscan FC) at 450 nm, with reference at 620 nm.

T1 sequence (Q08722 19-139 limits assumed): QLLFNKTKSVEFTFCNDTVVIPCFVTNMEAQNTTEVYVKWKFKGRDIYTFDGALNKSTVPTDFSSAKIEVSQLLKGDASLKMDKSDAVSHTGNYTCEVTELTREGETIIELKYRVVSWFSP

EC50: 0.103 mg/L
B1: C-terminal his-tagged DSP107_V3.1 (SEQ ID NO: 17) (other)
chain: EEELQVIQPDKSVLVAAGETATLRCTATSLIPVGPIQWFRGAGPGRELIYNQKEGHFPRVTTVSDLTKRNNMDFSIRIGNITPADAGTYYCVKFRKGSPDDVEFKSGAGTELSVRAGSGARASPGSAASPRLREGPELSPDDPAGLLDLRQGMFAQLVAQNVLLIDGPLSWYSDPGLAGVSLTGGLSYKEDTKELVVAKAGVYYVFFQLELRRVVAGEGSGSVSLALHLQPLRSAAGAAALALTVDLPPASSEARNSAFGFQGRLLHLSAGQRLGVHLHTEARARHAWQLTQGATVLGLFRVTPEIPAGLPSPRSEHHHHHH
notes: also called (CH)-V3.1; DSP107_var3.1 with C-terminal His tag
